Assay results reported in patent publication US20030064070A1.

Molecular target: recombinant human TNFα (rhTNF) (human) (UniProt P01375)
Test: cell-based or functional assay

Chain of UniProt P01375 (P01375 77-233 limits assumed): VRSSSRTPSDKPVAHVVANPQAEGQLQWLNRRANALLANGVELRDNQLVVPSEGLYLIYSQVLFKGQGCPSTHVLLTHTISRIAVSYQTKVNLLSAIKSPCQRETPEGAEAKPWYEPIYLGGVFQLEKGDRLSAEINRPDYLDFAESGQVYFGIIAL

- IL-6 in supernatant of FS-4 fibroblasts, TNF 0.3 ng/ml, antibody 4 µg/ml: 1.6 ng/mL
- IL-6 in supernatant of FS-4 fibroblasts, TNF 1.5 ng/ml, antibody 4 µg/ml: 1.96 ng/mL
- IL-6 in supernatant of FS-4 fibroblasts, TNF 7.5 ng/ml, antibody 4 µg/ml: 2.16 ng/mL
B1: chimeric mouse/human IgG1 anti-platelet mAb (7E3) (antibody, INN chains, looked up, V domains shown)
VH: EVQLQQSGTVLARPGASVKMSCEASGYTFTNYWMHWVKQRPGQGLEWIGAIYPGNSDTSYIQKFKGKAKLTAVTSTTSVYMELSSLTNEDSAVYYCTLYDGYYVFAYWGQGTLVTVSA
VL: EIVLTQSPVTLSVTPGDSVSLSCRASRDISNNLHWFQQTSHESPRLLIKYASQSMSGIPSRFSGSGSGTDFTLSINSVETEDFGMYFCQQTNSWPYTFGGGTKLEIK
modifications: IgG1
